The source of these data is patent US20150239980A1 (NEOTOPE BOSCIENCES, published 2015).

Experiment [1] deals with T1, Recombinant human Fc-tagged MCAM IgG1-2A (human MCAM domains 1 and 2, amino acids 19-242) (human, UniProt P43121 19-242).
T1 construct: also called human MCAM IgG1-2A; MCAM Fc domains 1 and 2; not shown: human Fc tag
T1 sequence: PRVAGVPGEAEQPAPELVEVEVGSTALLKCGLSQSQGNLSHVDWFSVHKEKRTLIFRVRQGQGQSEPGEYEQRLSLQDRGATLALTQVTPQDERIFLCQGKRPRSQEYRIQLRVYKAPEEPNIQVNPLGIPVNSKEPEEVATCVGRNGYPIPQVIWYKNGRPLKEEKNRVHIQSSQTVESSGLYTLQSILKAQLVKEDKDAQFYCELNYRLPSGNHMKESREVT
As to the kind of experiment: ForteBio domain mapping as in Example 8. For orientation: BLI is a label-free optical method that tracks binding on a fibre tip over time.

For experiment [2], the target named is T2, human MCAM domain 3 (amino acids 244-321), Fc-tagged (human, UniProt P43121 244-321).
T2 construct: also called domain 3 of the human MCAM protein
T2 sequence: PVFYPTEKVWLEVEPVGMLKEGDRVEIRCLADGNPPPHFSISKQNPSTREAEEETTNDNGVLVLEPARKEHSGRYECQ
As to the kind of experiment: ForteBio domain mapping as in Example 8.

Experiment [3] deals with T3, recombinant hMCAM-His (human, UniProt P43121 24-559).
T3 construct: not shown: His tag
T3 chain: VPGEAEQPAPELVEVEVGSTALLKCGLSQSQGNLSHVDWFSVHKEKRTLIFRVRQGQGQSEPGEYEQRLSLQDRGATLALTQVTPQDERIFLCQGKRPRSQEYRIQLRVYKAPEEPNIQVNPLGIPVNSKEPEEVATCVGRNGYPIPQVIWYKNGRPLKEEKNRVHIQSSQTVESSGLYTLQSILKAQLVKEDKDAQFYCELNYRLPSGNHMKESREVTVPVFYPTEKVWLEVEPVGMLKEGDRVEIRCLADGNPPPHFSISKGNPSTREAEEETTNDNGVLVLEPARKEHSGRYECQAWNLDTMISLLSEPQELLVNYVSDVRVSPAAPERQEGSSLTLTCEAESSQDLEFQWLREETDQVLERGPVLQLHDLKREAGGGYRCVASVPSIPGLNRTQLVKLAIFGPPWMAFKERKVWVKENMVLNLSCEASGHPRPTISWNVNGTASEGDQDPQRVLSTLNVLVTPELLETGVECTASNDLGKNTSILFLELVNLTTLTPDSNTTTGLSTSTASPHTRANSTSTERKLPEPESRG
The experiment in a line: ForteBio Octet Red, hMCAM-His analyte; Expt. #1; vs rodent 1749. As for the experimental part: The affinities were measured using the ForteBio Octet Red. Anti-human Fc sensors were used to capture the humanized antibodies, and several concentrations of hMCAMHis analyte were used to determine the affinity using a 1:1 fitting model.

Experiment [4] concerns the target T4, human MCAM (melanoma cell adhesion molecule) expressed on transfected CHO cells (human, UniProt P43121 24-646).
T4 construct: also called hMCAM; CD146
T4 chain: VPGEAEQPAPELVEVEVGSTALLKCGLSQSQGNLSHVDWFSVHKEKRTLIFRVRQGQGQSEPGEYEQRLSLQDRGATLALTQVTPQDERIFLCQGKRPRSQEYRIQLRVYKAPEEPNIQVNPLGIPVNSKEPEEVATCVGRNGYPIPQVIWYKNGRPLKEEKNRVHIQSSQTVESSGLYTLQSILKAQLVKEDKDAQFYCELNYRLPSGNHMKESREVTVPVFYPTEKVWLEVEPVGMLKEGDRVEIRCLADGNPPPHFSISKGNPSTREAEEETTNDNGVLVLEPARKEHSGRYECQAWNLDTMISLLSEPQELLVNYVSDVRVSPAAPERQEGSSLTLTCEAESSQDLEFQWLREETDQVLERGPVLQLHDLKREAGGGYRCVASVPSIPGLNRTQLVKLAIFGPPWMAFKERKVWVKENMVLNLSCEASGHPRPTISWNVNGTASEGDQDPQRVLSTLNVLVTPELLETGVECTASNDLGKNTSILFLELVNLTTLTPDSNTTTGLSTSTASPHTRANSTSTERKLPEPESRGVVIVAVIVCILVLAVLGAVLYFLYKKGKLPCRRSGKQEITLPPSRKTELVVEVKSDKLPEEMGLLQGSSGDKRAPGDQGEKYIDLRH
As to the kind of experiment: laminin/FACS on hMCAM CHO cells, competitor laminin 411; Expt#1; vs rodent 1749. Put shortly:
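Flow cytometry read-out: AF650-labelled anti-laminin staining of bound laminin, added after washing cells incubated 30-45 min.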

Experiment [5] has as its target T3, recombinant hMCAM-His. As to the kind of experiment: competitive ELISA on hMCAM-His, competitor biotinylated rodent or chimeric 1749; vs rodent 1749. For orientation: In an ELISA, binding on a coated surface is turned into a signal by an enzyme label.
Experiment [6] has as its target T3, recombinant hMCAM-His. The experiment in a line: competitive ELISA on hMCAM-His, competitor biotinylated rodent or chimeric 1749; Expt. #2; vs rodent 1749. Put shortly: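 Plates coated with recombinant hMCAM-His and casein-blocked; biotinylated rodent or chimeric antibody at subsaturating level competed by 3× serial concentrations of unlabeled humanized, rodent or chimeric antibody. Bound biotinylated antibody detected with streptavidin-HRP/TMB at OD450; competitor IC50 fitted.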

B1: mouse anti-human MCAM monoclonal antibody clone 1749.1.3 (antibody, V domains shown)
VH: DVKLVESGGDLVKPGGSLKLSCAASGFTFSSYIMSWVRQTPEKRLEWVATISSGGSSTYYPDSVKGRFTISRDNAKNTLYLQMSSLKSEDTAMYYCTRDDDYDVKVFAYWGQGTLVTVSA
VL: DIVMSQSPSSLAVSAGEKVTMNCKSSRSLLNSRIRKNYLAWYQQKPGQSPKLLIYWASTRESGVPDRFTGSGSGTDFTLTISSVQAEDLAVYYCKQSYNLLTFGAGTKLELK
notes: mouse hybridoma antibody; also called rodent 1749; murine 1749.1.3 anti-MCAM antibody
For B1, the results for the binding result in experiment [1] and in experiment [2] were “no binding” and “binds”, respectively. In addition, the “fold over rodent (Forte affinity)” value with recombinant hMCAM-His [3] was determined as 1 fold. In addition, in experiment [4], the “fold over rodent (blocking, laminin/FACS)” value was 1 fold. Further, the “fold over rodent (competitive ELISA)” value with recombinant hMCAM-His [5] and with recombinant hMCAM-His [6] was 1 fold in each case.
